T1: Tbx2 T-box DNA-binding domain, TBX2(94-281) (UniProt Q60707 94-281)
T1 sequence: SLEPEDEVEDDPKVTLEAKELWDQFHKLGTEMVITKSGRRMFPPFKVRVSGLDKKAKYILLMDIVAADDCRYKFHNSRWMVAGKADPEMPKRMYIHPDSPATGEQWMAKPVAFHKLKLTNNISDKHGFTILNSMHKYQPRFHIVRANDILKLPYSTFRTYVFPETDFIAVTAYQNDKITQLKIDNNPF


Target: T1, Tbx2 T-box DNA-binding domain, …
Assay: fluorescence anisotropy; 50 mM HEPES/NaOH pH 7.3, 200 mM NaCl, 25 C, 10 min, 3.33 nM dsDNA probe
Conditions: protein: recombinant, tags: N-terminal His tag removed by 3C protease (pETM14, NcoI/XhoI), blunt

Row | Binder | Kd (label: fluorescein (printed at the 3' end), self-complementary palindrome, 2 copies) | Kd (label: fluorescein on S14 (printed at the 3' end), complement unlabeled)
1 | T-element (T-box) probe (dsDNA) DNA 1: AATTTCACACCTAGGTGTGAAATT DNA 2: AATTTCACACCTAGGTGTGAAATT | ~602 nM | –
2 | E-box probe (dsDNA) DNA 1: GAGACCACGTGTTGAC DNA 2: GTCAACACGTGGTCTC | – | ~86 nM

Source: publication PMC8653791, “TBX2 controls a proproliferative gene expression program in melanoma”
